Ends that are not written are not given here.

For assay [1], the target named is T1, E. cloacae Cap2 E1 domain, residues 363-600, C548A (Enterobacter cloacae UCI 50, UniProt P0DX82 363-600).
T1 construct: also called Cap2 E1 (of Cap2 E1-CD-NTase: AMP, PDB 7TSQ)
As to the kind of experiment: X-ray crystallography of a fusion construct, 2.11 A.

The target in assay [2] is T2, E. cloacae Cap2 E1 domain, residues 374-600, C548A (Enterobacter cloacae UCI 50, UniProt P0DX82 374-600).
T2 construct: also called Cap2 E1 (of Cp2 E1-CD-NTase Apo, PDB 7TSX)
The experiment in a line: X-ray crystallography of a fusion construct, 1.77 A.

In assay [3] the target is T3, E. cloacae Cap2 C109A/C548A (catalytically dead) (Enterobacter cloacae UCI 50, UniProt P0DX82 1-600).
T3 construct: also called C.D. Cap2; Cap2(C548A/C109A)
As to the kind of experiment: co-purified stoichiometric complex, cryo-EM.

B1: E. cloacae CD-NTase C terminus, residues 370-381 (peptide)
peptide: KPAEPQKTGRFA
modifications: also: C terminus conjugated to AMP in ATP-bound structure, unmodified in apo structure
For B1, the binding result in assay [1] and in assay [2] was “binds” throughout.

B2: E. cloacae CD-NTase with an N-terminal His6-tag (enzyme)
chain: MELQPQFNEFLANIRPTDTQKEDWKSGARTLRERLKNFEPLKEIVVSTFLQGSIRRSTAIRPLGDKRPDVDIVVVTNLDHTRMSPTDAMDLFIPFLEKYYPGKWETQGRSFGITLSYVELDLVITAIPESGAEKSHLEQLYKSESVLTVNSLEEQTDWRLNKSWTPNTGWLSESNSAQVEDAPASEWKAHPLVLPDREKNEWGRTHPLAQIRWTAEKNRLCNGHYINLVRAVKWWRQQNSEDLPKYPKGYPLEHLIGNALDNGTTSMAQGLVQLMDTFLSRWAAIYNQKSKPWLSDHGVAEHDVMARLTAEDFCSFYEGIASAAEIARNALASEEPQESAQLWRQLFGSKFPLPGPQGGDRNGGFTTPSKPAEPQKTGRFA
modifications: C terminus conjugated to AMP in the cryo-EM structure
notes: also called His6-CD-NTase; ec cdnD02; not shown: N-terminal His6-TEV cleavage site tag of vector 2-BT
With B2, the binding result in assay [3] is recorded as “binds”.
